Literature values in patent US8623606B2, “Screening method for GPCR ligands” (Max-Planck-Gesellschaft zur Forderung der wissenschaften …, priority 2006, dated 2014).
Read-outs that look alike come from different tables or passages of the source.

Assays:
[1] = target: T1, CRF1 receptor (Homo sapiens, UniProt P34998)
T1 sequence (P34998 24-415): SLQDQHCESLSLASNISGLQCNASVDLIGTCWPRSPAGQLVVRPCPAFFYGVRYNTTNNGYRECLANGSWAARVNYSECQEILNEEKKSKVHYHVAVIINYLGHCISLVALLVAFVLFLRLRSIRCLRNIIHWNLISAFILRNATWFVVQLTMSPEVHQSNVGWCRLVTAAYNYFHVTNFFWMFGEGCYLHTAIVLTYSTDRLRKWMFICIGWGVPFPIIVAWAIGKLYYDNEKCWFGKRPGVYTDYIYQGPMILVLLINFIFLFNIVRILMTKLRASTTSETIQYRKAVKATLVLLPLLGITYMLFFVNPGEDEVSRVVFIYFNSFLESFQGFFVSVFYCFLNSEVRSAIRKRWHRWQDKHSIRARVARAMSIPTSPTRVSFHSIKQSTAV

[2] = target: T1, CRF1 receptor; remark: listed apart in the source
[3] = tested on: CRF R1; conditions: FIG. 2A legend

| Substance | binding to the CRF1 receptor (in words) ([1]; FIG. 2B legend) | Kd ([1]; as reported in Yamada et al., read-out: binding constant to the N-terminal domain) | Kd ([1]; literature value, read-out: affinity of binding to the CRF1 receptor) | influence on the J-domain signaling [2] | CRF R1 activation potency (testosterone production) [3] |
| --- | --- | --- | --- | --- | --- |
| Ac-E*AEK*NRLXDII-CONH2 [12 amino acid analog of astressin] | binds tightly | 5 nM | 5.5 nM | devoid of any detectable influence |  |
| Ucn1-19: N-terminal activation domain from the CRF R1 agonist rat urocortin (DDPPLSIDLTFHLLRTLLEIE; listed as Homo sapiens) |  |  |  |  | Neither of the isolated domains is active alone |
| consensus peptide derived from the C-terminus of CRF R1 antagonists: consensus peptide derived from the C-terminus of CRF R1 antagonists (NRKLLDEV; listed as Homo sapiens) |  |  |  |  | Neither of the isolated domains is active alone |
